Results taken from patent publication US20190374506A1 (BETH ISREAL DEACONESS MEDICAL CENTER, published 2019).

Columns and labels:
HA-PTEN = target: T1, HA-PTEN (human, UniProt P60484 1-403); test: anti-PTEN immunoprecipitation from DU145 cells transfected with HA-PTEN, SDS-PAGE, mass-spectrometric peptide sequencing of the bands (association in the precipitate)
T1 construct: Expressed in DU145 cells and immunoprecipitated with anti-PTEN antibody for mass spectrometry; also called exogenous PTEN; pcDNA3-HA-PTEN; not shown: HA tag
Description: FIG. 2A is a Western blot. Lysates from DU145 cells transfected with HA-PTEN were immunoprecipitated with an anti-PTEN antibody followed by mass-spectrometric peptide sequencing. WWP1 and NEDD4-1 were identified.
In order to identify the E3 ligases that induce PTEN atypical K27-linked poly-ubiquitination, exogenous PTEN was immunoprecipitated from DU145 cells, followed by identification of the proteins that interacted with PTEN by mass spectrometry (FIG. 2A; FIG. 18).

Flag-WWP1 = target: T2, Flag-WWP1 (Homo sapiens (Human), UniProt Q9H0M0 1-922); test: reciprocal co-immunoprecipitation from 293 cells: IP HA / WB Flag and IP Flag / WB HA
T2 construct: also called full-length Flag-WWP1; recombinant Flag-WWP1; not shown: Flag tag

[1] = target: the molecule itself; test: gel filtration of HEK293 lysate, fractions on SDS-PAGE, anti-Myc blot
Method: 293 cells were transfected with the indicated expression vectors. After 24 hours, cells were washed with PBS, lysed and filtered through a 0.45 μm syringe filter. 500 μl of lysate (4 mg/ml) was loaded into a Superdex200 10/300 GL column (GE Lifesciences Cat. No. 17-5175-01). Tandem columns gel filtrations were performed by further attaching a series Superdex 75 10/300 GL column (GE Lifesciences Cat. No. 17-5174-01). Samples were separated in a Superdex75 column first, followed by a Superdex 200 column. Chromatography was performed by using anAKTA FPLC (GE Lifesciences Cat. No. 18-1900-26), and protein complexes were resolved and eluted with lysis buffer at 0.5 ml/minute, 500 μl per fraction. 40 μl aliquots of each fraction were separated by SDS-PAGE and western blot analysis was performed with the indicated antibodies. Before sample separation, molecular-weight resolution of the columns was estimated by running the Gel Filtration Calibration Kit (GE Lifesciences, #28-4038-42) to determine retention times on Coomassie-stained SDS-PAGE protein gels.

Binder | binding result (HA-PTEN) | other results
Cytoskeleton-associated protein 4 (other) MPSAKQRGSKGGHGAASPSEKGAHPSGGADDVAKKPPPAPQQPPPPPAPHPQQHPQQHPQNQAHGKGGHRGGGGGGGKSSSSSSASAAAAAAAASSSASCSRRLGRALNFLFYLALVAAAAFSGWCVHHVLEEVQQVRRSHQDFSRQREELGQGLQGVEQKVQSLQATFGTFESILRSSQHKQDLTEKAVKQGESEVSRISEVLQKLQNEILKDLSDGIHVVKDARERDFTSLENTVEERLTELTKSINDNIAIFTEVQKRSQKEINDMKAKVASLEESEGNKQDLKALKEAVKEIQTSAKSREWDMEALRSTLQTMESDIYTEVRELVSLKQEQQAFKEAADTERLALQALTEKLLRSEESVSRLPEEIRRLEEELRQLKSDSHGPKEDGGFRHSEAFEALQQKSQGLDSRLQHVEDGVLSMQVASARQTESLESLLSKSQEHEQRLAALQGRLEGLGSSEADQDGLASTVRSLGETQLVLYGDVEELKRSVGELPSTVESLQKVQEQVHTLLSQDQAQAARLPPQDFLDRLSSLDNLKASVSQVEADLKMLRTAVDSLVAYSVKIETNENNLESAKGLLDDLRNDLDRLFVKVEKIHEKV | binds | –
N-terminal PTEN (1-187) (enzyme, not shown: small tags and cut ends) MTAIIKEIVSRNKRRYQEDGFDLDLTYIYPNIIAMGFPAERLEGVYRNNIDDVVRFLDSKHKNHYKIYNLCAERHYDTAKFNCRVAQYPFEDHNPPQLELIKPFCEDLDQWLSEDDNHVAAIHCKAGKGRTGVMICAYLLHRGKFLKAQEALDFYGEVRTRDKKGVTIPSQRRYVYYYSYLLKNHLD | – | binding result (Flag-WWP1): no binding
PTEN K342/K344R mutant (enzyme, not shown: small tags and cut ends, also called Myc-PTEN K342/K344R mutant; PTEN K342/K344R ubiquitination defective mutant) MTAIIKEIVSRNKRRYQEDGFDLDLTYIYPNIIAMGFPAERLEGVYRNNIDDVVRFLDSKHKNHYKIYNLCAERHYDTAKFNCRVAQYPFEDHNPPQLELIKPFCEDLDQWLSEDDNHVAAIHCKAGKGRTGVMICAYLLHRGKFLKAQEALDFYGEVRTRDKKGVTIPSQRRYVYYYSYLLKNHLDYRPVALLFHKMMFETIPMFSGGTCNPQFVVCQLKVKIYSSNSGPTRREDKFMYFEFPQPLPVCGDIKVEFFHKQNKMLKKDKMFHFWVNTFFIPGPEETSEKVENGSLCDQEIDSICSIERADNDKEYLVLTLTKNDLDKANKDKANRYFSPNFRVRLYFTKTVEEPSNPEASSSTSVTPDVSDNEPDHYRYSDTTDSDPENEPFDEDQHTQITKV | – | binding result [1]: binds

Further lines, with some results ahead:

binding result (HA-PTEN) | Binder | other results
binds | Isoform 2 of Putative RNA-binding protein 15 (other) MRTAGRDPVPRRSPRWRRAVPLCETSAGRRVTQLRGDDLRRPATMKGKERSPVKAKRSRGGEDSTSRGERSKKLGGSGGSNGSSSGKTDSGGGSRRSLHLDKSSSRGGSREYDTGGGSSSSRLHSYSSPSTKNSSGGGESRSSSRGGGGESRSSGAASSAPGGGDGAEYKTLKISELGSQLSDEAVEDGLFHEFKRFGDVSVKISHLSGSGSGDERVAFVNFRRPEDARAAKHARGRLVLYDRPLKIEAVYVSRRRSRSPLDKDTYPPSASVVGASVGGHRHPPGGGGGQRSLSPGGAALGYRDYRLQQLALGRLPPPPPPPLPRDLERERDYPFYERVRPAYSLEPRVGAGAGAAPFREVDEISPEDDQRANRTLFLGNLDITVTESDLRRAFDRFGVITEVDIKRPSRGQTSTYGFLKFENLDMSHRAKLAMSGKIIIRNPIKIGYGKATPTTRLWVGGLGPWVPLAALAREFDRFGTIRTIDYRKGDSWAYIQYESLDAAHAAWTHMRGFPLGGPDRRLRVDFADTEHRYQQQYLQPLPLTHYELVTDAFGHRAPDPLRGARDRTPPLLYRDRDRDLYPDSDWVPPPPPVRERSTRTAATSVPAYEPLDSLDRRRDGWSLDRDRGDRDLPSSRDQPRKRRLPEESGGRHLDRSPESDRPRKRHCAPSPDRSPELSSSRDRYNSDNDRSSRLLLERPSPIRDRRGSLEKSQGDKRDRKNSASAERDRKHRTTAPTEGKSPLKKEDRSDGSAPSTSTASSKLKSPSQKQDGGTAPVASASPKLCLAWQGMLLLKNSNFPSNMHLLQGDLQVASSLLVEGSTGGKVAQLKITQRLRLDQPKLDEVTRRIKVAGPNGYAILLAVPGSSDSRSSSSSAASDTATSTQRPLRNLVSYLKQKQAAGVISLPVGGNKDKENTGVLHAFPPCEFSQQFLDSPAKALAKSEEDYLVMIIVRGAS | –
binds | Monofunctional C1-tetrahydrofolate synthase (enzyme) SSGGGGGGGGGREGLLGQRRPQDGQARSSCSPGGRTPAARDSIVREVIQNSKEVLSLLQEKNPAFKPVLAIIQAGDDNLMQEINQNLAEEAGLNITHICLPPDSSEAEIIDEILKINEDTRVHGLALQISENLFSNKVLNALKPEKDVDGVTDINLGKLVRGDAHECFVSPVAKAVIELLEKSGVNLDGKKILVVGAHGSLEAALQCLFQRKGSMTMSIQWKTRQLQSKLHEADIVVLGSPKPEEIPLTWIQPGTTVLNCSHDFLSGKVGCGSPRIHFGGLIEEDDVILLAAALRIQNMVSSGRRWLREQQHRRWRLHCLKLQPLSPVPSDIEISRGQTPKAVDVLAKEIGLLADEIEIYGKSKAKVRLSVLERLKDQADGKYVLVAGITPTPLGEGKSTVTIGLVQALTAHLNVNSFACLRQPSQGPTFGVKGGAAGGGYAQVIPMEEFNLHLTGDIHAITAANNLLAAAIDTRILHENTQTDKALYNRLVPLVNGVREFSEIQLARLKKLGINKTDPSTLTEEEVSKFARLDIDPSTITWQRVLDTNDRFLRKITIGQGNTEKGHYRQAQFDIAVASEIMAVLALTDSLADMKARLGRMVVASDKSGQPVTADDLGVTGALTVLMKDAIKPNLMQTLEGTPVFVHAGPFANIAHGNSSVLADKIALKLVGEEGFVVTEAGFGADIGMEKFFNIKCRASGLVPNVVVLVATVRALKMHGGGPSVTAGVPLKKEYTEENIQLVADGCCNLQKQIQITQLFGVPVVVALNVFKTDTRAEIDLVCELAKRAGAFDAVPCYHWSVGGKGSVDLARAVREAASKRSRFQFLYDVQVPIVDKIRTIAQAVYGAKDIELSPEAQAKIDRYTQQGFGNLPICMAKTHLSLSHQPDKKGVPRDFILPISDVRASIGAGFIYPLVGTMSTMPGLPTRPCFYDIDLDTETEQVKGLF | –
binds | Isoform 2 of Structural maintenance of chromosomes protein 2 (other) MHIKSIILEGFKSYAQRTEVNGFDPLFNAITGLNGSGKSNILDSICFLLGISNLSQVRASNLQDLVYKNGQAGITKASVSITFDNSDKKQSPLGFEVHDEITVTRQVVIGGRNKYLINGVNANNTRVQDLFCSVGLNVNNPHFLIMQGRITKVLNMKPPEILSMIEEAAGTRMYEYKKIAAQKTIEKKEAKLKEIKTILEEEITPTIQKLKEERSSYLEYQKVMREIEHLSRLYIAYQFLLAEDTKVRSAEELKEMQDKVIKLQEELSENDKKIKALNHEIEELEKRKDKETGGILRSLEDALAEAQRVNTKSQSAFDLKKKNLACEESKRKELEKNMVEDSKTLAAKEKEVKKITDGLHALQEASNKDAEALAAAQQHFNAVSAGLSSNEDGAEATLAGQMMACKNDISKAQTEAKQAQMKLKHAQQELKNKQAEVKKMDSGYRKDQEALEAVKRLKEKLEAEMKKLNYEENKEESLLEKRRQLSRDIGRLKETYEALLARFPNLRFAYKDPEKNWNRNCVKGLVASLISVKDTSATTALELVAGERLYNVVVDTEVTGKKLLERGELKRRYTIIPLNKISARCIAPETLRVAQNLVGPDNVHVALSLVEYKPELQKAMEFVFGTTFVCDNMDNAKKVAFDKRIMTRTVTLGGDVFDPHGTLSGGARSQAASILTKFQELKDVQDELRIKENELRALEEELAGLKNTAEKYRQLKQQWEMKTEEADLLQTKLQQSSYHKQQEELDALKKTIEESEETLKNTKEIQRKAEEKYEVLENKMKNAEAERERELKDAQKKLDCAKTKADASSKKMKEKQQEVEAITLELEELKREHTSYKQQLEAVNEAIKSYESQIEVMAAEVAKNKESVNKAQEEVTKQKEVITAQDTVIKAKYAEVAKHKEQNNDSQLKIKELDHNISKHKREAEDGAAKVSKMLKDYDWINAERHLFGQPNSAYDFKTNNPKEAGQRLQKLQEMKEKLGRNVNMRAMNVLTEAEERYNDLMKKKRIVENDKSKILTTIEDLDQKKNQALNIAWQKVNKDFGSIFSTLLPGANAMLAPPEGQTVLDGLEFKVALGNTWKENLTELSGGQRQKQQNHTTG | –
